Drawing on patent publication US20250215070A1, this text covers EC50 and Kd for 3 molecules.

Sequences and labels used below:
B1: CTHRC1S-M14 (antibody, V domains shown)
VH: EVQVVESGGGLVQPGGSLRLSCAASRFTFSNYWMSWVRQAPGRGLEWVANIKQDGSEKYYVDSVKGRFTISRDNAKNSLYLQMNSLRAEDTAVYYCAREGGYCSDTRCFFYMDVWGKGTTVTVSS
VL: DIQMTQSPSTLSASVGDRVTITCRASQSIISWLAWYQQKPGKAPKLLIYKASSLEGGVPSRFSGSGSGTDFTLTISSLQPDDFATYYCQQYNSYSRTFGQGTTVEIK
B2: CTHRC1S-M5 (antibody, V domains shown)
VH: EVQLVESGGGLVTPGGSLRLSCAASGFTFSTYSMNWVRQAPGKGLEWVSSISGSSGHIYYADSVRGRFTISRDNAKNSLYLQMNSLRAEDTAVYYCASMHYYYYLDVWGKGTTVTVSS
VL: QAVVTQESALTTSPGETVTLTCRSSTGTVTTSNYVTWVQEKPDHLFTGLIGATNNRAPGVPARFSGSLIGDKAALTITGAQTEDEAIYFCALWYSNHWVFGGGTKLTVL
B3: CTHRC1S-M11 (antibody, V domains shown)
VH: QVTLRESGPALVKPTQTLTLTCTFSGFSLSTNVMCVSWIRQPPGKALEWLALIDWDDDKYYSTSLKTRLTISKDTSKNQVVLTMTNMDPVDTATYYCARTGITGTHYYYYYMDVWGKGTTVTVSS
VL: AIQMTQSPSSLSASVGDRVTITCRASQGIRNDLGWYQQKPGKAPKLLIYAASSLQSGVPSRFSGSGFGTDFTLTISSLQPEDFATYYCLQDYNYPWTFGQGTKVEIK

Bounds are passed on as bounds.

For the first experiment, the target named is human Collagen triple helix repeat-containing protein 1 (CTHRC1) (human) (UniProt Q96CG8). Description: binding EC50 on huCTHRC1; method not stated (ELISA named in text). (In an ELISA, binding on a coated surface is turned into a signal by an enzyme label.)
human Collagen triple helix repeat-containing protein 1 (CTHRC1) (human), sequence (Q96CG8 31-243): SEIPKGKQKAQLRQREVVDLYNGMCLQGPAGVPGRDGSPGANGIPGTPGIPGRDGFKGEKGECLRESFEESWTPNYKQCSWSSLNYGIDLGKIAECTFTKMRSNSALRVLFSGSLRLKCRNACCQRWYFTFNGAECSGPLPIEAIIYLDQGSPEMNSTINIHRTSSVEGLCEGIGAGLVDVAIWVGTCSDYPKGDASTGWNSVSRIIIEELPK
Molecule B1 returned an EC50 of 0.05 nM.
B2: the EC50 came out at 1.85 nM.
In the case of B3, the EC50 worked out at 9.76 nM.

The next experiment shares this target. Description: bio-layer interferometry; CTHRC1 species not stated. A general note: BLI is a label-free optical method that tracks binding on a fibre tip over time.
B1: the Kd is under 0.001 nM.
B2: the dissociation constant Kd is 3.18 nM.
Still for that read-out and setting: the result for B3 reads 2 nM.

In general, EC50 refers to the concentration needed to bring the measured effect to its halfway point. High values mean a less potent agent, low ones a more potent agent. What is called Kd is the equilibrium constant for the complex coming apart.
